Data as given in the supplement of paper PMC9112550, “Optimization of the antimicrobial peptide Bac7 by deep mutational scanning” (BMC Biology, 2022).

Tested on: Escherichia coli TOP10
Test: shrunken log2 fold change of peptide-encoding DNA abundance (4.5 h post-induction vs induction); higher = less antimicrobial activity (less host growth inhibition)
Settings: time post-induction: 4.5 h; library: site-saturation at positions 5, 18, 19, 20
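Also: peptides expressed intracellularly from a pBAD plasmid library in pooled LB shake-flask culture, induced with 0.3% L-arabinose, DNA abundance read by NGS, three biological replicates, DESeq2 with apeglm shrinkage.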

| Sequence | shrunken log2 fold change |
| --- | --- |
| RRIRIRPPRLPRPRPRPGTKPRP | -0.0997 |
| RRIRTRPPRLPRPRPRPYVDPRP | 0.0214 |
| RRIRQRPPRLPRPRPRPDNQPRP | -0.037 |
| RRIRCRPPRLPRPRPRPMFWPRP | -0.327 |
| RRIRNRPPRLPRPRPRPLSKPRP | -0.176 |
| RRIRTRPPRLPRPRPRPDFCPRP | -0.311 |
| RRIRNRPPRLPRPRPRPSKYPRP | -0.532 |
| RRIRVRPPRLPRPRPRPISLPRP | -0.0572 |
| RRIRNRPPRLPRPRPRPGWCPRP | 2.24 |
| RRIRLRPPRLPRPRPRPAHDPRP | 0.189 |
| RRIRPRPPRLPRPRPRPTGHPRP | 0.0828 |
| RRIRRRPPRLPRPRPRPILEPRP | 0.0696 |
| RRIRGRPPRLPRPRPRPFEKPRP | 0.22 |
| RRIRCRPPRLPRPRPRPRRLPRP | 0.133 |
| RRIRCRPPRLPRPRPRPEFEPRP | 0.0293 |
| RRIRRRPPRLPRPRPRPPQFPRP | 0.864 |
| RRIRMRPPRLPRPRPRPNVNPRP | 0.148 |
| RRIRMRPPRLPRPRPRPYFRPRP | -0.575 |
| RRIRCRPPRLPRPRPRPSAFPRP | 0.426 |
| RRIRSRPPRLPRPRPRPQHEPRP | -0.296 |
| RRIRVRPPRLPRPRPRPRFMPRP | -0.459 |
| RRIRYRPPRLPRPRPRPRNSPRP | 0.022 |
| RRIRNRPPRLPRPRPRPVSLPRP | -0.396 |
| RRIRCRPPRLPRPRPRPHPAPRP | 0.34 |
| RRIRMRPPRLPRPRPRPDFAPRP | 0.0706 |

| Sequence | shrunken log2 fold change |
| --- | --- |
| RRIRFRPPRLPRPRPRPFNNPRP | -0.262 |
| RRIRWRPPRLPRPRPRPIVMPRP | -0.154 |
| RRIRQRPPRLPRPRPRPYFHPRP | -0.563 |
| RRIRNRPPRLPRPRPRPIFPPRP | -0.281 |
| RRIRVRPPRLPRPRPRPTGHPRP | 0.0149 |
| RRIRGRPPRLPRPRPRPGKCPRP | -0.0229 |
| RRIRLRPPRLPRPRPRPPNWPRP | 0.377 |
| RRIRVRPPRLPRPRPRPNNLPRP | -0.534 |
| RRIRARPPRLPRPRPRPLIVPRP | 0.287 |
| RRIRCRPPRLPRPRPRPAWAPRP | 0.108 |
| RRIRLRPPRLPRPRPRPFRQPRP | 0.0662 |
| RRIRERPPRLPRPRPRPQPRPRP | 0.328 |
| RRIRERPPRLPRPRPRPLNCPRP | -1.25 |
| RRIRVRPPRLPRPRPRPKNQPRP | -0.173 |
| RRIRDRPPRLPRPRPRPPCGPRP | 0.411 |
| RRIRFRPPRLPRPRPRPEQPPRP | 0.0505 |
| RRIRRRPPRLPRPRPRPLYIPRP | -0.466 |
| RRIRIRPPRLPRPRPRPTTNPRP | -0.463 |
| RRIRERPPRLPRPRPRPNIAPRP | 0.0918 |
| RRIRSRPPRLPRPRPRPGSYPRP | -0.0952 |
| RRIRHRPPRLPRPRPRPCSRPRP | -0.231 |
| RRIRHRPPRLPRPRPRPQGSPRP | -0.109 |
| RRIRKRPPRLPRPRPRPDEGPRP | -0.01 |
| RRIRTRPPRLPRPRPRPQACPRP | -0.0237 |
| RRIRSRPPRLPRPRPRPLRFPRP | 0.926 |

| Sequence | shrunken log2 fold change |
| --- | --- |
| RRIRHRPPRLPRPRPRPRLQPRP | 0.0915 |
| RRIRIRPPRLPRPRPRPVQIPRP | 0.072 |
| RRIRFRPPRLPRPRPRPYKVPRP | -0.614 |
| RRIRRRPPRLPRPRPRPQNMPRP | -0.472 |
| RRIRCRPPRLPRPRPRPWMDPRP | -0.169 |
| RRIRHRPPRLPRPRPRPDRCPRP | -0.205 |
| RRIRGRPPRLPRPRPRPQIPPRP | 0.25 |
| RRIRARPPRLPRPRPRPRFVPRP | 0.457 |
| RRIRTRPPRLPRPRPRPWNGPRP | -0.199 |
| RRIRYRPPRLPRPRPRPWKLPRP | -0.121 |
| RRIRSRPPRLPRPRPRPAYMPRP | -0.608 |
| RRIRFRPPRLPRPRPRPQWMPRP | -0.414 |
| RRIRMRPPRLPRPRPRPCDPPRP | -0.0166 |
| RRIRFRPPRLPRPRPRPIFCPRP | -0.155 |
| RRIRTRPPRLPRPRPRPPGLPRP | 1.11 |
| RRIRCRPPRLPRPRPRPARGPRP | 0.297 |
| RRIRERPPRLPRPRPRPMKEPRP | -0.0276 |
| RRIRMRPPRLPRPRPRPAIKPRP | -0.183 |
| RRIRERPPRLPRPRPRPHNQPRP | -0.325 |
| RRIRVRPPRLPRPRPRPQKCPRP | -0.0983 |
| RRIRWRPPRLPRPRPRPWNTPRP | -0.195 |
| RRIRHRPPRLPRPRPRPGNMPRP | -0.121 |
| RRIRQRPPRLPRPRPRPFGVPRP | 0.0831 |
| RRIRQRPPRLPRPRPRPGFNPRP | -0.119 |
| RRIRQRPPRLPRPRPRPGMMPRP | -0.0714 |

| Sequence | shrunken log2 fold change |
| --- | --- |
| RRIRFRPPRLPRPRPRPYCWPRP | -0.652 |
| RRIRARPPRLPRPRPRPQLAPRP | 0.766 |
| RRIRWRPPRLPRPRPRPNKLPRP | -0.277 |
| RRIRARPPRLPRPRPRPYHAPRP | -0.0253 |
| RRIRKRPPRLPRPRPRPIIRPRP | -0.59 |
| RRIRVRPPRLPRPRPRPPGAPRP | 0.595 |
| RRIRNRPPRLPRPRPRPKFGPRP | 0.0252 |
| RRIRMRPPRLPRPRPRPPSHPRP | 0.622 |
| RRIRHRPPRLPRPRPRPANGPRP | -0.0837 |
| RRIRGRPPRLPRPRPRPCLVPRP | 0.761 |
| RRIRSRPPRLPRPRPRPRGQPRP | 0.197 |
| RRIRHRPPRLPRPRPRPHKKPRP | -0.0741 |
| RRIRQRPPRLPRPRPRPPYCPRP | 0.0161 |
| RRIRPRPPRLPRPRPRPWQHPRP | -0.105 |
| RRIRFRPPRLPRPRPRPGCEPRP | 0.187 |
| RRIRQRPPRLPRPRPRPAPPPRP | 0.702 |
| RRIRPRPPRLPRPRPRPHPKPRP | 0.347 |
| RRIRNRPPRLPRPRPRPYFDPRP | -0.0504 |
| RRIRVRPPRLPRPRPRPKYLPRP | -0.308 |
| RRIRVRPPRLPRPRPRPDPTPRP | 0.106 |
| RRIRYRPPRLPRPRPRPLARPRP | -0.265 |
| RRIRQRPPRLPRPRPRPEWGPRP | 0.125 |
| RRIRMRPPRLPRPRPRPICWPRP | 0.0409 |
| RRIRGRPPRLPRPRPRPFHMPRP | -0.0599 |
| RRIRGRPPRLPRPRPRPWNVPRP | -0.0303 |

| Sequence | shrunken log2 fold change |
| --- | --- |
| RRIRKRPPRLPRPRPRPPSDPRP | 0.75 |
| RRIRTRPPRLPRPRPRPAIMPRP | -0.0824 |
| RRIRYRPPRLPRPRPRPLQNPRP | 0.0956 |
| RRIRCRPPRLPRPRPRPETWPRP | 0.203 |
| RRIRIRPPRLPRPRPRPSNWPRP | -0.257 |
| RRIRDRPPRLPRPRPRPHTVPRP | -0.0379 |
| RRIRTRPPRLPRPRPRPDVQPRP | 0.0493 |
| RRIRQRPPRLPRPRPRPQTAPRP | -0.000297 |
| RRIRYRPPRLPRPRPRPKILPRP | -0.247 |
| RRIRGRPPRLPRPRPRPNKPPRP | -0.035 |
| RRIRSRPPRLPRPRPRPVNGPRP | -0.00994 |
| RRIRDRPPRLPRPRPRPMSHPRP | -0.046 |
| RRIRIRPPRLPRPRPRPTCKPRP | -0.466 |
| RRIRRRPPRLPRPRPRPTMHPRP | 0.539 |
| RRIRMRPPRLPRPRPRPVQAPRP | 1.26 |
| RRIRQRPPRLPRPRPRPNKRPRP | 0.0702 |
| RRIRMRPPRLPRPRPRPIPPPRP | 0.369 |
| RRIRNRPPRLPRPRPRPTVMPRP | 0.178 |
| RRIRMRPPRLPRPRPRPHNDPRP | 0.00915 |
| RRIRPRPPRLPRPRPRPNNRPRP | -0.349 |
| RRIRYRPPRLPRPRPRPDRTPRP | -0.0309 |
| RRIRHRPPRLPRPRPRPCHSPRP | -0.19 |
| RRIRGRPPRLPRPRPRPSHGPRP | 0.487 |
| RRIRVRPPRLPRPRPRPGNRPRP | -0.0858 |
| RRIRSRPPRLPRPRPRPVVGPRP | 0.267 |

| Sequence | shrunken log2 fold change |
| --- | --- |
| RRIRHRPPRLPRPRPRPVDIPRP | -0.167 |
| RRIRPRPPRLPRPRPRPMHMPRP | 0.0173 |
| RRIRERPPRLPRPRPRPTFFPRP | 0.321 |
| RRIRRRPPRLPRPRPRPGNLPRP | 0.0367 |
| RRIRGRPPRLPRPRPRPLCSPRP | 0.496 |
| RRIRRRPPRLPRPRPRPRRLPRP | 0.54 |
| RRIRKRPPRLPRPRPRPPERPRP | 2.02 |
| RRIRIRPPRLPRPRPRPFWSPRP | 0.0627 |
| RRIRFRPPRLPRPRPRPWDIPRP | -0.0124 |
| RRIRKRPPRLPRPRPRPCGLPRP | 0.933 |
| RRIRNRPPRLPRPRPRPYYDPRP | -0.0248 |
| RRIRVRPPRLPRPRPRPFDEPRP | -0.242 |
| RRIRFRPPRLPRPRPRPNYMPRP | -0.254 |
| RRIRARPPRLPRPRPRPYLKPRP | -0.352 |
| RRIRRRPPRLPRPRPRPREKPRP | 0.0627 |
| RRIRYRPPRLPRPRPRPKREPRP | 0.0201 |
| RRIRCRPPRLPRPRPRPTGGPRP | 0.561 |
| RRIRWRPPRLPRPRPRPMTKPRP | 0.181 |
| RRIRDRPPRLPRPRPRPVSAPRP | 0.666 |
| RRIRCRPPRLPRPRPRPCPQPRP | -0.184 |
| RRIRQRPPRLPRPRPRPNNIPRP | -0.732 |
| RRIRCRPPRLPRPRPRPNFWPRP | -0.136 |
| RRIRCRPPRLPRPRPRPNEWPRP | 0.0357 |
| RRIRHRPPRLPRPRPRPVEKPRP | -0.0342 |
| RRIRLRPPRLPRPRPRPVDQPRP | 0.194 |
